Source: patent US20260116991A1
Several values for one entry are separate records, joined by “and”; a condition that tells them apart may be missing. Identical values can stand only once.

Legend:
[1] = target: GPC3 endogenously expressed on HepG2 cells (UniProt P51654); experiment: FACS on HepG2 cells
[2] = target: human GPC3-His protein (human) (UniProt P51654); experiment: ELISA, coated human GPC3, antibody 1 nM
[3] = target: human GPC3-His protein (human) (UniProt P51654); experiment: ELISA, coated human GPC3, antibody 10 nM
[4] = target: human GPC3-His protein (human) (UniProt P51654); experiment: ELISA, coated human GPC3, antibody 0.1 nM
[5] = target: human GPC3-His protein (human) (UniProt P51654); experiment: ELISA, coated human GPC3, antibody 100 nM
[6] = target: human GPC3-His protein (human) (UniProt P51654); experiment: ELISA, coated human GPC3, antibody 0.01 nM
[7] = target: human GPC3-His protein (human) (UniProt P51654); experiment: ELISA, coated human GPC3, antibody 0.001 nM
[8] = target: human GPC3-His protein (human) (UniProt P51654); experiment: ELISA, coated human GPC3, antibody 0.0001 nM
[9] = target: human GPC3-His protein (Acro, Cat. No. GP3-H52H4) (human) (UniProt P51654); experiment: ELISA, coated human GPC3-His
[10] = target: monkey GPC3-His protein (Acro, Cat. No. GP3-C5225) (monkey); experiment: ELISA, coated monkey GPC3-His
[11] = target: murine GPC3-His protein (Sino Biological, Cat. No. 50989-M08B) (murine) (UniProt Q8CFZ4); experiment: ELISA, coated murine GPC3-His
[12] = target: human GPC3 expressed on CHO-K1 recombinant cells (human) (UniProt P51654); experiment: FACS on CHO-K1 clone CHOK1-hGPC3.1C3
[13] = target: human GPC3 expressed on CHO-K1 recombinant cells (human) (UniProt P51654); experiment: FACS on CHO-K1 clone CHOK1-hGPC3.2B5
[14] = target: human GPC3 expressed on CHO-K1 recombinant cells (human) (UniProt P51654); experiment: FACS on CHO-K1 clone CHOK1-hGPC3.3E9
[15] = target: GPC3 expressed endogenously on HepG2 cells (UniProt P51654); experiment: FACS on HepG2 cells, control in the row of Y035
[16] = target: GPC3 expressed endogenously on HepG2 cells (UniProt P51654); experiment: FACS on HepG2 cells, control in the row of T2-23
[17] = target: GPC3 on HepG2 cells (human) (UniProt P51654); experiment: FACS on HepG2 cells

Sequence of murine GPC3-His protein (Sino Biological, Cat. No. 50989-M08B) (murine) (Q8CFZ4 25-558 limits assumed): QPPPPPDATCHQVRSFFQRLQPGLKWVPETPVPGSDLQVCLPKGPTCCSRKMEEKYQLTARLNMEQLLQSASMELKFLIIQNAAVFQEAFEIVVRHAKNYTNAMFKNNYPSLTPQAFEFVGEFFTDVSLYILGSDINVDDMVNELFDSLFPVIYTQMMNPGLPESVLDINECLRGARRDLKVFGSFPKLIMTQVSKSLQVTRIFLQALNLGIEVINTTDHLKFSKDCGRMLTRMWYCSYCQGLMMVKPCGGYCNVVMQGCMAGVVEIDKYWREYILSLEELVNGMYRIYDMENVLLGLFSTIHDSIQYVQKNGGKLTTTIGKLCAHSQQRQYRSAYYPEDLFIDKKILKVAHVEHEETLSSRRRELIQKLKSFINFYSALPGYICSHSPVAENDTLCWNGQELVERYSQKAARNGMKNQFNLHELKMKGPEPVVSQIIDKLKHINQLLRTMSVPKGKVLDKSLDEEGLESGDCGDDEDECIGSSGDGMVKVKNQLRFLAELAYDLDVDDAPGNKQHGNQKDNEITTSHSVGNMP

“hIgG1 (IgG subtype control, human IgG1) (antibody)” was tested, and the Max MFI [1] was 154 MFI and 258 MFI and 110 MFI, the OD450 nm [2] was 0.09 OD450 and the OD450 nm [3] was 0.09 OD450. For the same substance, the OD450 nm [4] was 0.09 OD450, the OD450 nm [5] was 0.11 OD450 and the OD450 nm [6] was 0.09 OD450. For the same substance, the OD450 nm [7] was 0.09 OD450 and the OD450 nm [8] was 0.09 OD450.

hIgG1 (antibody) gave an OD450 at 0.0001 nM antibody [9] of 0.047 OD450, an OD450 at 0.001 nM antibody [9] of 0.048 OD450 and an OD450 at 0.01 nM antibody [9] of 0.048 OD450. For the same substance, the OD450 at 0.1 nM antibody [9] was 0.05 OD450, the OD450 at 1 nM antibody [9] was 0.048 OD450 and the OD450 at 10 nM antibody [9] was 0.05 OD450. It also gave an OD450 at 100 nM antibody [9] of 0.072 OD450, an OD450 at 0.0001 nM antibody [10] of 0.048 OD450 and an OD450 at 0.001 nM antibody [10] of 0.044 OD450. The OD450 at 0.01 nM antibody [10] was 0.044 OD450, the OD450 at 0.1 nM antibody [10] was 0.045 OD450 and the OD450 at 1 nM antibody [10] was 0.044 OD450. The OD450 at 10 nM antibody [10] was 0.047 OD450, the OD450 at 100 nM antibody [10] was 0.056 OD450 and the OD450 at 0.0001 nM antibody [11] was 0.049 OD450. For the same substance, the OD450 at 0.001 nM antibody [11] was 0.051 OD450, the OD450 at 0.01 nM antibody [11] was 0.052 OD450 and the OD450 at 0.1 nM antibody [11] was 0.05 OD450. It also gave an OD450 at 1 nM antibody [11] of 0.05 OD450, an OD450 at 10 nM antibody [11] of 0.055 OD450 and an OD450 at 100 nM antibody [11] of 0.105 OD450. The Mean fluorescence intensity of cells [12] was 19.3 MFI, the Mean fluorescence intensity of cells [13] was 19.3 MFI and the Mean fluorescence intensity of cells [14] was 19.3 MFI. The Mean fluorescence intensity of cells [15] was 137 MFI and the Mean fluorescence intensity of cells [16] was 137 MFI.

hIgG1 control (antibody) showed an OD450 at 0.0001 nM antibody [11] of 0.06 OD450 nm, an OD450 at 0.001 nM antibody [11] of 0.05 OD450 nm and an OD450 at 0.01 nM antibody [11] of 0.05 OD450 nm. It also gave an OD450 at 0.1 nM antibody [11] of 0.06 OD450 nm, an OD450 at 1 nM antibody [11] of 0.05 OD450 nm and an OD450 at 10 nM antibody [11] of 0.06 OD450 nm. For the same substance, the OD450 at 100 nM antibody [11] was 0.12 OD450 nm.

hIgG (antibody) showed a Max MFI [17] of 58.8.
